± gives the standard deviation of the averaged measurements.
Experiment: total protein half-life in vivo (active degradation + dilution); higher = more stable protein
[1] = E. coli NCM3722 delta-clpP delta-lon delta-hslV, growth: N-lim chemostat, doubling time 6 h
[2] = E. coli NCM3722 delta-clpP, growth: N-lim chemostat, doubling time 6 h
[3] = E. coli NCM3722 delta-hslV, growth: N-lim chemostat, doubling time 6 h
[4] = E. coli NCM3722 delta-lon, growth: N-lim chemostat, doubling time 6 h
[5] = E. coli NCM3722 delta-smpB, growth: N-lim chemostat, doubling time 6 h
[6] = wild type E. coli NCM3722, growth: C-lim chemostat, doubling time 3 h
[7] = wild type E. coli NCM3722, growth: C-lim chemostat, doubling time 12 h
[8] = wild type E. coli NCM3722, growth: N-lim chemostat, doubling time 6 h
[9] = wild type E. coli NCM3722, growth: N-lim chemostat, doubling time 12 h
[10] = wild type E. coli NCM3722, growth: P-lim chemostat, doubling time 6 h
[11] = wild type E. coli NCM3722, growth: P-lim chemostat, doubling time 12 h
[12] = wild type E. coli NCM3722, growth: C-lim chemostat, doubling time 6 h

MSDWNPSLYLHFSAERSRPAVELLARVPLENVEYVADLGCGPGNSTALLQQRWPAARITGIDSSPAMIAEARSALPDCQFVEADIRNWQPVQALDLIFANASLQWLPDHYELFPHLVSLLNPQGVLAVQMPDNWLEPTHVLMREVAWEQNYPDRGREPLAGVHAYYDILSEAGCEVDIWRTTYYHQMPSHQAIIDWVTATGLRPWLQDLTESEQQLFLKRYHQMLEEQYPLQENGQILLAFPRLFIVARRME
total protein half-life in vivo [1]: 3.89 ± 0.51 h | total protein half-life in vivo [2]: 5.9 ± 1.7 h | total protein half-life in vivo [3]: 4.82 ± 0.7 h | total protein half-life in vivo [4]: 6.54 ± 1.9 h | total protein half-life in vivo [5]: 3.62 ± 0.042 h | total protein half-life in vivo [6]: 3.29 ± 0.6 h | total protein half-life in vivo [7]: 9.97 ± 1.8 h | total protein half-life in vivo [8]: 4.14 ± 0.17 h | total protein half-life in vivo [9]: 4.96 h | total protein half-life in vivo [10]: 5.89 ± 0.061 h | total protein half-life in vivo [11]: 11 ± 0.27 h

MITRDFLMNADCKTAFGAIEESLLWSAEQRAASLAATLACRPDEGPVWIFGYGSLMWNPALEFTESCTGTLVGWHRAFCLRLTAGRGTAHQPGRMLALKEGGRTTGVAYRLPEETLEQELTLLWKREMITGCYLPTWCQLDLDDGRTVNAIVFIMDPRHPEYESDTRAQVIAPLIAAASGPLGTNAQYLFSLEQELIKLGMQDDGLNDLLVSVKKLLAENFPDGVLRPGFA
total protein half-life in vivo [1]: 5.67 ± 0.14 h

MSHRRSTVKGSLSFANPTVRAWLFQILAVVAVVGIVGWLFHNTVTNLNNRGITSGFAFLDRGAGFGIVQHLIDYQQGDTYGRVFIVGLLNTLLVSALCIVFASVLGFFIGLARLSDNWLLRKLSTIYIEIFRNIPPLLQIFFWYFAVLRNLPGPRQAVSAFDLAFLSNRGLYIPSPQLGDGFIAFILAVVMAIVLSVGLFRFNKTYQIKTGQLRRTWPIAAVLIIGLPLLAQWLFGAALHWDVPALRGFNFRGGMVLIPELAALTLALSVYTSAFIAEIIRAGIQAVPYGQHEAARSLGLPNPVTLRQVIIPQALRVIIPPLTSQYLNIVKNSSLAAAIGYPDMVSLFAGTVLNQTGQAIETIAMTMSVYLIISLTISLLMNIYNRRIAIVER
total protein half-life in vivo [3]: 3.79 h | total protein half-life in vivo [8]: 4.44 ± 0.14 h | total protein half-life in vivo [9]: 6.58 h

MISTVALFWALCVVCIVNMARYFSSLRALLVVLRNCDPLLYQYVDGGGFFTSHGQPNKQVRLVWYIYAQRYRDHHDDEFIRRCERVRRQFILTSALCGLVVVSLIALMIWH [P0A8S5]
total protein half-life in vivo [1]: 0.94 h | total protein half-life in vivo [2]: 0.778 h | total protein half-life in vivo [6]: 0.797 h | total protein half-life in vivo [12]: > 8 h

MKLQQLRYIVEVVNHNLNVSSTAEGLYTSQPGISKQVRMLEDELGIQIFSRSGKHLTQVTPAGQEIIRIAREVLSKVDAIKSVAGEHTWPDKGSLYIATTHTQARYALPNVIKGFIERYPRVSLHMHQGSPTQIADAVSKGNADFAIATEALHLYEDLVMLPCYHWNRAIVVTPDHPLAGKKAITIEELAQYPLVTYTFGFTGRSELDTAFNRAGLTPRIVFTATDADVIKTYVRLGLGVGVIASMAVDPVADPDLVRVDAHDIFSHSTTKIGFRRSTFLRSYMYDFIQRFAPHLTRDVVDAAVALRSNEEIEVMFKDIKLPEK [P0A9F3]
total protein half-life in vivo [1]: 7.08 ± 0.39 h | total protein half-life in vivo [2]: 4.65 ± 0.091 h | total protein half-life in vivo [3]: 5.88 ± 0.65 h | total protein half-life in vivo [4]: 5.93 ± 0.08 h | total protein half-life in vivo [5]: 4.96 ± 0.18 h | total protein half-life in vivo [6]: 2.98 ± 0.23 h | total protein half-life in vivo [12]: 5.63 ± 0.12 h | total protein half-life in vivo [7]: 10 ± 1.2 h | total protein half-life in vivo [8]: 5.41 ± 0.36 h | total protein half-life in vivo [9]: 11 ± 0.51 h | total protein half-life in vivo [10]: 4.01 ± 0.32 h | total protein half-life in vivo [11]: 7.28 ± 0.33 h

MGKTNDWLDFDQLAEEKVRDALKPPSMYKVILVNDDYTPMEFVIDVLQKFFSYDVERATQLMLAVHYQGKAICGVFTAEVAETKVAMVNKYARENEHPLLCTLEKA [P0A8Q6]
total protein half-life in vivo [1]: 5.9 ± 0.35 h | total protein half-life in vivo [3]: 0.855 ± 0.013 h | total protein half-life in vivo [4]: 1.05 h | total protein half-life in vivo [6]: 0.522 h | total protein half-life in vivo [12]: 0.628 h | total protein half-life in vivo [7]: 0.456 h | total protein half-life in vivo [11]: 0.869 h

MKKSILALSLLVGLSTAASSYAALPETVRIGTDTTYAPFSSKDAKGDFVGFDIDLGNEMCKRMQVKCTWVASDFDALIPSLKAKKIDAIISSLSITDKRQQEIAFSDKLYAADSRLIAAKGSPIQPTLDSLKGKHVGVLQGSTQEAYANETWRSKGVDVVAYANQDLVYSDLAAGRLDAALQDEVAASEGFLKQPAGKDFAFAGSSVKDKKYFGDGTGVGLRKDDAELTAAFNKALGELRQDGTYDKMAKKYFDFNVYGD
total protein half-life in vivo [1]: 6.69 ± 0.15 h | total protein half-life in vivo [3]: 6.37 ± 0.68 h | total protein half-life in vivo [4]: 6.79 ± 0.077 h | total protein half-life in vivo [5]: 5.31 ± 0.11 h | total protein half-life in vivo [6]: 3.22 ± 0.3 h | total protein half-life in vivo [12]: 6.33 ± 0.92 h | total protein half-life in vivo [7]: 11.58 ± 0.11 h | total protein half-life in vivo [8]: 5.27 ± 0.47 h | total protein half-life in vivo [9]: 8.71 ± 0.59 h | total protein half-life in vivo [10]: 5.98 ± 0.25 h | total protein half-life in vivo [11]: 11.4 ± 1.6 h

MQTQVLFEHPLNEKMRTWLRIEFLIQQLTVNLPIVDHAGALHFFRNVSELLDVFERGEVRTELLKELDRQQRKLQTWIGVPGVDQSRIEALIQQLKAAGSVLISAPRIGQFLREDRLIALVRQRLSIPGGCCSFDLPTLHIWLHLPQAQRDSQVETWIASLNPLTQALTMVLDLIRQSAPFRKQTSLNGFYQDNGGDADLLRLNLSLDSQLYPQISGHKSRFAIRFMPLDTENGQVPERLDFELACC
total protein half-life in vivo [1]: 6.32 ± 0.19 h | total protein half-life in vivo [2]: 6.18 ± 0.41 h | total protein half-life in vivo [3]: 6.06 ± 1.5 h | total protein half-life in vivo [4]: 5.0717 ± 0.004 h | total protein half-life in vivo [5]: 4.94 ± 0.2 h | total protein half-life in vivo [6]: 2.66 ± 0.025 h | total protein half-life in vivo [12]: 6.55 ± 0.5 h | total protein half-life in vivo [8]: 4.87 ± 1.7 h | total protein half-life in vivo [9]: 11.4 ± 6.5 h | total protein half-life in vivo [10]: 5.66 ± 0.3 h | total protein half-life in vivo [11]: 12.3 ± 1.5 h

— the supplement of paper PMC11246515
